The target in experiment [1] is T1, human-mouse fusion construct 5017 of CD137, on Jurkat cells (human with a murine segment, UniProt Q07011 24-255).
T1 construct: on Jurkat cells
T1 chain: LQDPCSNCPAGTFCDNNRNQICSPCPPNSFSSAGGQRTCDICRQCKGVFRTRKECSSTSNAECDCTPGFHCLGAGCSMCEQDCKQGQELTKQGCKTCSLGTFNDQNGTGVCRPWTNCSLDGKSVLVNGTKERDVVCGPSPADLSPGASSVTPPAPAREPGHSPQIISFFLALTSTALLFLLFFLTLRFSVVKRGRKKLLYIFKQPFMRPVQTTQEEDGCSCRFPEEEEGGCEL
The experiment is described as follows: flow cytometry on transfected Jurkat cells, serial dilutions of antibody. How it is done: (§1) These engineered mutant cell lines were used to test whether anti-CD137 antibody can bind to particular switch mutants. Absence of binding would thereby indicate possible epitope locations. The cell binding assays were performed generally as described in Section 1.1. […] The cells were then washed and suspended in 80 μl of 2% paraformaldehyde (Electron Microscopy Sciences) prepared in PBS. Data were collected with BD FACS Canto and analyzed using BD FACSDiva software.

Experiment [2] deals with T2, human CD137 expressed on cells (human, UniProt Q07011 24-255).
T2 construct: also called 4-1BB; TNFRSF9
In words: flow cytometry on engineered Jurkat cells, anti-human lambda-PE detection.

The target in experiment [3] is T3, “4-aa mouse to human” CD137 protein (murine with a human segment, UniProt P20334 24-187).
T3 construct: also called “mouse to human” CD137 chimeric protein; not shown: Gly-Ser linker
In words: SPR, BA001 captured by anti-human Fab, chimeric protein at 60 nM as analyte. How it is done: (§2) The chimeric CD137 proteins described above were tested in a surface plasmon resonance (SPR) assay. Briefly, a CM5 sensor chip was first coated with an anti-human Fab antibody using the amine coupling kit. […] Sensorgrams were recorded during both the association and dissociation phases.

For experiment [4], the target named is T4, “4-aa human to mouse” CD137 protein (human with a murine segment, UniProt Q07011 24-186).
T4 construct: also called “human to mouse” CD137 chimeric protein; not shown: Gly-Ser linker
In words: SPR, antibody captured by anti-human Fab, CD137 protein as analyte. The procedure: as §2

The target of experiment [5] is T5, human-mouse fusion construct 5018 of CD137, on Jurkat cells (human with a murine segment, UniProt Q07011 24-255).
T5 construct: also called mutant 5018; murine switch mutant 5018
T5 chain: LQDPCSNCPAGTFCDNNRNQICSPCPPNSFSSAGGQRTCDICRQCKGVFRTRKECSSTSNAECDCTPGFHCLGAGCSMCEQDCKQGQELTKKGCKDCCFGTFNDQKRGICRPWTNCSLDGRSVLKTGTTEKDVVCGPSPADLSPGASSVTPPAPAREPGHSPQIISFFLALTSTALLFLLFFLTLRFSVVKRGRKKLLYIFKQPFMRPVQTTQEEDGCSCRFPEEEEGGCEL
The experiment is described as follows: flow cytometry on transfected Jurkat cells, anti-human IgG-PE detection. The procedure: as §1

The target of experiment [6] is T6, human-mouse fusion construct 5016 of CD137, on Jurkat cells (human with a murine segment, UniProt Q07011 24-255).
T6 chain: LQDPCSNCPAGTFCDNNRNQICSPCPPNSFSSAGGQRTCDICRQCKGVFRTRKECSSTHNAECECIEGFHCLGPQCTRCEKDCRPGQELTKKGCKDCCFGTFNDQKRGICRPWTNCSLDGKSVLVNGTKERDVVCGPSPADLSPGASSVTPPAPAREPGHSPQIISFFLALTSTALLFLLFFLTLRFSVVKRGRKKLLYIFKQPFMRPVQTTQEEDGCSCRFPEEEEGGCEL
Described as above. How it is done: as §1

Experiment [7] addresses T7, human-mouse fusion construct 5015 of CD137, on Jurkat cells (human with a murine segment, UniProt Q07011 24-255).
T7 construct: also called mutant 5015; murine switch mutant 5015
T7 chain: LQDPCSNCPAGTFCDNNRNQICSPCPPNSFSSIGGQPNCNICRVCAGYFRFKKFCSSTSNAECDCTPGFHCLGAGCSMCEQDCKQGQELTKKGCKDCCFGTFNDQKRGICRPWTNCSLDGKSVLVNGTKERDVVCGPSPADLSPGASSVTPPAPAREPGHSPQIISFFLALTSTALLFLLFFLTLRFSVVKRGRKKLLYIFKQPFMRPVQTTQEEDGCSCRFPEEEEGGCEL
Described as above. How it is done: as §1

Experiment [8] addresses T8, extracellular domain of human CD137 with Gly-Ser linker and 6×His tag (human, UniProt Q07011 24-186).
T8 construct: also called human CD137 (ELISA antigen); not shown: Gly-Ser linker
The experiment is described as follows: ELISA (DELFIA europium read-out), antigen coated at 5 µg/ml, IgG1 titrated. The procedure:
(§3) Specifically, 50 μl of 5 μg/ml of each antigen diluted in 1×PBS pH 7.4 (Gibco™, Cat no. 10010056) was added to each well in a Thermo Scientific™ Black 96-Well Immuno Plate (Thermofisher Scientific, Cat no. 437111) and incubated at 4° C. overnight. The plate was washed three times with PBS using the Biotek 405TS microplate washer with Biostack3 microplate stacker. The plate was blocked by incubating with 300 ul/well of 3% Milk Powder in PBS (Marvel dried skimmed milk powder) for 1 hour at room temperature, and were washed three times with 1×PBS. The antibodies titrated in 3% M-PBS (Milk Powder in 1×PBS) were added to the plate and incubated for 1 hour at room temperature. The plate was washed three times with 1×PBS with 0.1% Tween20 (Sigma Aldrich, Cat No. P1379) and three times with 1×PBS using the plate washer. 50 μl Biotin-SP (long spacer) AffiniPure Goat Anti-Human IgG, Fcγ Fragment Specific (Jackson Immuno Research, Code:109-065-098, Lot no. 123909) diluted at 1:2000 in 3% M-PBS was added to each well and incubated for 1 hour at room temperature. The plate was washed three times with 1×PBS with 0.1% Tween20 and three times with 1×PBS using the plate washer. For detection, 50 μl of DELFIA® Europium-labeled streptavidin (PerkinElmer, Part no. 1244-360, Lot no. 2195997) diluted in the DELFIA® Assay buffer (PerkinElmer, Part no. 4002-0010, Lot no. 646702) at 1:500 was added to each well and incubated for 1 hour at room temperature. The plate was washed three times with 1×PBS with 0.1% Tween20 and three times with PBS using the plate washer.

Experiment [9] deals with T9, mouse-human fusion construct 5017 (extracellular domain, Gly-Ser linker, 6×His tag) (murine with a human segment, UniProt P20334 24-187).
T9 construct: not shown: Gly-Ser linker
T9 chain (part 1 of 2): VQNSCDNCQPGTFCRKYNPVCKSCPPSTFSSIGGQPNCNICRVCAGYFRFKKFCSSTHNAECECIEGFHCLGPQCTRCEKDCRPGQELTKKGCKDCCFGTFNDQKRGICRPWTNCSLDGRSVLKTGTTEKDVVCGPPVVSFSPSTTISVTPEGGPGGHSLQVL
T9 chain (part 2 of 2): HHHHHH
Described as above. How it is done:
as §3

Experiment [10] deals with T10, mouse-human fusion construct 5015 (extracellular domain, Gly-Ser linker, 6×His tag) (murine with a human segment, UniProt P20334 24-187).
T10 construct: also called mCD137-human53-80; not shown: Gly-Ser linker
T10 chain (part 1 of 2): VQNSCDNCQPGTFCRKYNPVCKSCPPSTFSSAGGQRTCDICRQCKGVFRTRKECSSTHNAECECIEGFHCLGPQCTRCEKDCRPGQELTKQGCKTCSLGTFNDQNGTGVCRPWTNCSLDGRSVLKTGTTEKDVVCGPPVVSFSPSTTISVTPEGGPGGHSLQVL
T10 chain (part 2 of 2): HHHHHH
In words: ELISA (DELFIA europium read-out), antigen coated at 5 µg/ml. How it is done:
as §3

B1: BA001 (IgG1) (antibody, V domains shown)
VH: not shown
VL: SYVLTQPPSVSVAPGETARITCGGDDIGDKRVHWYQKKPDQAPVLVVYEDRYRPSGIPERISGSNSGNTATLTLSRVEAGDEADYYCQVWDSSSDHPGVFGGGTQLIILG
modifications: N-terminal X = glutamine (Q) or pyroglutamate (pE)
notes: Human IgG1 with lambda light chain; also called anti-CD137 antibody BA001
Take B1: the binding result in [1] is on record as “no binding”; in experiment [2] it was “binds”; in [3], “binds”; in experiment [4], “no binding (tested: 60 nM)”; in experiment [5], “binds”; in experiment [6] it was “binds”. For the same molecule, in experiment [7], the binding result is reported as “binds”.

B2: BA049 (IgG1 format) (antibody, V domains shown)
VH: not shown
VL: SYVLTQPPSVSVAPGETARITCGGDDIGDKRVHWYQKKPDQAPVLVVYEDRYRPSGIPERISGSNSGNTATLTLSRVEAGDEADYYCQVWDSSSDHPGVFGGGTQLIILG
modifications: N-terminal X = glutamine (Q) or pyroglutamate (pE)
Consider B2, for which the binding result in experiment [8] was “binds”; in [9] it was “binds”; in [10], “no binding”.

B3: BA050 (IgG1 format) (antibody, V domains shown)
VH: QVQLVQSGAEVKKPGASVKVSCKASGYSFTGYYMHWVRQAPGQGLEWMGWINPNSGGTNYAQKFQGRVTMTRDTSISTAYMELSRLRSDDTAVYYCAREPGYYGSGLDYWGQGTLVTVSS
VL: SYVLTQPPSVSVAPGETARITCGGDDIGDKRVHWYQKKPDQAPVLVVYEDRYRPSGIPERISGSNSGNTATLTLSRVEAGDEADYYCQVWNSSSDHPGVFGGGTQLIILG
modifications: N-terminal X = glutamine (Q) or pyroglutamate (pE)
Consider B3, for which the binding result is on record as “binds” in [8], “binds” in experiment [9] and “no binding” in experiment [10].

B4: BA052 (IgG1 format) (antibody, V domains shown)
VH: QVQLVQSGAEVKKPGASVKVSCKASGYNFSGYYMHWVRQAPGQGLEWMGWINPNSGGTNYAQKFQGRVTITRDTSISTAYMELSRLRSDDTAVYYCAREPGYYGSGLDYWGQGTLVTVSS
VL: SYVLTQPPSVSVAPGETARITCGGDDIGDKRVHWYQKKPDQAPVLVVYEDRYRPSGIPERISGSNSGNTATLTLSRVEAGDEADYYCQVWYSSPDHPGVFGGGTQLIILG
modifications: N-terminal X = glutamine (Q) or pyroglutamate (pE)
Regarding B4, the results for the binding result in experiment [8], in experiment [9] and in [10] were “binds”, “binds” and “no binding”, respectively.

B5: BA051 (IgG1 format) (antibody, V domains shown)
VH: not shown
VL: SYVLTQPPSVSVAPGETARITCGGDDIGDKRVHWYQKKPDQAPVLVVYEDRYRPSGIPERISGSNSGNTATLTLSRVEAGDEADYYCQVWDSSSDYPGVFGGGTQLIILG
modifications: N-terminal X = glutamine (Q) or pyroglutamate (pE)
Turning to B5, the binding result in experiment [8] is “binds”; in experiment [9], “binds”; in [10], “no binding”.

The values are drawn from US20180344870A1 (AGENUS, published 2018).
